This is an account of results in patent publication US20150079023A1.

The target in this experiment is CD16 (Fc receptor on NK cells) (human) (UniProt P08637). Nature of the experiment: cell-based or functional assay.
Sequence of UniProt P08637 (P08637 17-254): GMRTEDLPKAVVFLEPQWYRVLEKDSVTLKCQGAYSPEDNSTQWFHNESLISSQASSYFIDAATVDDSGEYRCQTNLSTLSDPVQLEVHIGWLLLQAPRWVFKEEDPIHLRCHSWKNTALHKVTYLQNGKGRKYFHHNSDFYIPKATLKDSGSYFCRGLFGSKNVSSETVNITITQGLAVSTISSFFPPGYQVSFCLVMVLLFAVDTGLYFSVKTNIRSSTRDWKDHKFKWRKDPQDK

As for rituximab (antibody), the % of CD69+ cells among total NK cells, 7-day CLL PBMC culture, RTX 10 ug/mL (untreated median 35.75%) worked out at 65.2%; the median % of proliferating NK cells (CFSE dilution), 7-day CLL culture, antibody alone was 14.8%; the median % of proliferating NK cells (CFSE dilution), 7-day CLL culture, antibody plus IL-15 10 ng/mL (IL-15 alone 42.25%) is 53.8%; the median % of viable CD19+/CD5+ B leukemic cells compared to untreated, 7 days, antibody alone was 79.5%. Besides, the median % of viable CD19+/CD5+ B leukemic cells compared to untreated, 7 days, antibody plus IL-15 10 ng/mL turned out to be 50.4%.
